Measurements published in patent publication EP4814000A1.

Columns and labels:
[1] = biological target: wild-type RSV B F (RSV B); assay: flow cytometry, Expi293F cells, Lipofectamine 2000-mRNA; row WT-RQ1
[2] = biological target: 003m-P215S-1×GCN4t (RSV); assay: flow cytometry, Expi293F cells, Lipofectamine 2000-mRNA
[3] = biological target: 003m-P215S-1×GCN4t-3N; assay: as above
[4] = biological target: 003m-P215S-1×Fibritin (RSV); assay: as above
[5] = biological target: 003m-P215S-1×GCN4t-1,3N; assay: as above
[6] = biological target: 003m-P215S-1×GCN4t-1,2N; assay: as above
[7] = biological target: 003m-P215S-1×GCN4t-1,2,3N; assay: as above
[8] = biological target: 003m-P215S-1×GCN4t-2N; assay: as above
[9] = biological target: 003m-P215S-1×GCN4t-2,3N; assay: as above
[10] = biological target: 003m-P215S-1×Fibritin-1N (RSV); assay: as above
[11] = biological target: 003m-P215S-1×GCN4t-1N; assay: as above
[12] = biological target: 003m-P215S-1×GCN4t (RSV); assay: flow cytometry, Expi293F cells, Lipofectamine 2000-mRNA; row 003m-P215S-1×GCN4t (ORIG)
[13] = biological target: 003m-P215S-1×GCN4t (RSV); assay: flow cytometry, Expi293F cells, Lipofectamine 2000-mRNA; row 003m-P215S-1×GCN4t-opti1
[14] = biological target: 003m-P215S-1×GCN4t (RSV); assay: flow cytometry, Expi293F cells, Lipofectamine 2000-mRNA; row 003m-P215S-1×GCN4t
[15] = biological target: 003m-P215S-1×GCN4t (RSV); assay: flow cytometry, Expi293F cells, Lipofectamine 2000-mRNA; remark: listed apart in the source
[16] = biological target: 008m-Cys-P215S-1×GCN4t (RSV); assay: as above
[17] = biological target: 013m-Cys-P215S-1×GCN4t; assay: as above
[18] = biological target: 007m-Cys-P215S-1×GCN4t (RSV); assay: as above
[19] = biological target: 009m-Cys-P215S-1×GCN4t (RSV); assay: as above
[20] = biological target: 012m-Cys-P215S-1×GCN4t; assay: as above
[21] = biological target: 010m-Cys-P215S-1×GCN4t (RSV); assay: as above
[22] = biological target: 011m-Cys-P215S-1×GCN4t; assay: as above

Row | Substance | MFI [1] | MFI [2] | MFI [3] | MFI [4] | MFI [5] | MFI [6] | MFI [7] | MFI [8] | MFI [9] | MFI [10] | MFI [11] | MFI [12] | MFI [13] | MFI [14] | MFI [15] | MFI [16] | MFI [17] | MFI [18] | MFI [19] | MFI [20] | other results
1 | AM14-AF488 (antibody) | 201000 | 4870 | 25100 | 22300 | 71000 | 58400 | 89600 | 28800 | 39100 | 242000 | 37400 | 4150 | 3380 | 30100 | 6700 | 9780 | 7930 | 7680 | 6450 | 9390 | MFI [21]: 8650; MFI [22]: 7710
2 | D25-AF488 (antibody) | 132000 | 10400 | 43400 | 23000 | 122000 | 100000 | 147000 | 54000 | 70700 | 235000 | 59400 | 8390 | 5680 | 54200 | 12200 | 15700 | 14600 | 12800 | 11500 | 15800 | MFI [21]: 13400; MFI [22]: 10300
